Reference: article PMC3810134, “Substrate and Inhibitor Specificity of the Type II p21-Activated Kinase, PAK6” (PLoS ONE, 2013)

Tested on: PACSIN1 phosphorylation (Ser343) in HEK293 cells
Experiment: Cell-based assay: phospho-PACSIN1 on co-transfection with PAK6 constructs in HEK293 cells
Settings: co-transfection with myc-PACSIN1, 24 h
Protocol: HEK293 cells were grown at 37°C with 5% CO2 in Dulbecco’s modified Eagle’s medium (DMEM) supplemented with 10% fetal bovine serum and penicillin/streptomycin. Cells were transfected with pCMV6-myc-PACSIN1 (kindly provided by J. Peterson) and pEGFP-C2, pEGFP-PAK6-WT, pEGFP-PAK6-P52L, pEGFP-PAK6-N (N-terminus, residues 1–382) or pEGFP-PAK6-CAT (catalytic domain, residues 383–674) using polyethylenimine (PEI, Polysciences Inc.). Twenty four hours later, cells were trypsinized, quenched with complete medium, washed with PBS and lysed in buffer containing 20 mM Tris (pH 8.0), 200 mM NaCl, 1 mM EDTA, 1% Triton X-100, Complete Protease Inhibitor Cocktail (Roche), and phosphatase inhibitors (1 mM Na3VO4, 10 mM NaF, 10 mM β-glycerol phosphate) for 10 minutes at 4°C. Samples were resolved by SDS-PAGE and were assessed by immunoblotting using the following antibodies: goat anti-GFP (1∶1000; Rockland), mouse anti-myc (9E10, 1∶1000; Santa Cruz Biotechnology), rabbit anti-phospho-PACSIN1 (1∶2000; gift of J. Peterson), mouse anti-vinculin (1∶10,000; Sigma), anti-goat or anti-rabbit IgG AlexaFluor680 (1∶5000, Invitrogen), anti-mouse IgG IRDye800 (1∶5000, Li-Cor). Bands visualized using a Li-Cor Oddysey imager and were quantified using ImageJ. A ratio of phospho-PACSIN1 to total PACSIN1 was calculated by dividing the total phospho-PACSIN1 signal by the myc signal.

Molecule | phosphorylation of PACSIN1 at Ser343 compared to GFP alone or GFP-PAK6 N-terminus (phospho-PACSIN1 immunoblot) | phosphorylation of PACSIN1 compared to wild-type PAK6 (phospho-PACSIN1/total PACSIN1 (myc), n = 4, Student's t-test)
full-length WT GFP-PAK6: full-length wild-type PAK6 fused to GFP, transfected in HEK293 cells (protein, UniProt Q9NQU5 1-681, looked up, full-length GFP fusion, full-length wild-type PAK6 fused to GFP, transfected in HEK293 cells) MFRKKKKKRPEISAPQNFQHRVHTSFDPKEGKFVGLPPQWQNILDTLRRPKPVVDPSRITRVQLQPMKTVVRGSAMPVDGYISGLLNDIQKLSVISSNTLRGRSPTSRRRAQSLGLLGDEHWATDPDMYLQSPQSERTDPHGLYLSCNGGTPAGHKQMPWPEPQSPRVLPNGLAAKAQSLGPAEFQGASQRCLQLGACLQSSPPGASPPTGTNRHGMKAAKHGSEEARPQSCLVGSATGRPGGEGSPSPKTRESSLKRRLFRSMFLSTAATAPPSSSKPGPPPQSKPNSSFRPPQKDNPPSLVAKAQSLPSDQPVGTFSPLTTSDTSSPQKSLRTAPATGQLPGRSSPAGSPRTWHAQISTSNLYLPQDPTVAKGALAGEDTGVVTHEQFKAALRMVVDQGDPRLLLDSYVKIGEGSTGIVCLAREKHSGRQVAVKMMDLRKQQRRELLFNEVVIMRDYQHFNVVEMYKSYLVGEELWVLMEFLQGGALTDIVSQVRLNEEQIATVCEAVLQALAYLHAQGVIHRDIKSDSILLTLDGRVKLSDFGFCAQISKDVPKRKSLVGTPYWMAPEVISRSLYATEVDIWSLGIMVIEMVDGEPPYFSDSPVQAMKRLRDSPPPKLKNSHKVSPVLRDFLERMLVRDPQERATAQELLDHPFLLQTGLPECLVPLIQLYRKQTSTC | increased phosphorylation of PACSIN1 at Ser343 | –
P52L mutant: full-length GFP-PAK6 with melanoma-associated P52L mutation, transfected in HEK293 cells (protein, UniProt Q9NQU5 1-681, looked up, variant P52L, full-length GFP fusion, full-length GFP-PAK6 with melanoma-associated P52L mutation, transfected in HEK293 cells) MFRKKKKKRPEISAPQNFQHRVHTSFDPKEGKFVGLPPQWQNILDTLRRPKLVVDPSRITRVQLQPMKTVVRGSAMPVDGYISGLLNDIQKLSVISSNTLRGRSPTSRRRAQSLGLLGDEHWATDPDMYLQSPQSERTDPHGLYLSCNGGTPAGHKQMPWPEPQSPRVLPNGLAAKAQSLGPAEFQGASQRCLQLGACLQSSPPGASPPTGTNRHGMKAAKHGSEEARPQSCLVGSATGRPGGEGSPSPKTRESSLKRRLFRSMFLSTAATAPPSSSKPGPPPQSKPNSSFRPPQKDNPPSLVAKAQSLPSDQPVGTFSPLTTSDTSSPQKSLRTAPATGQLPGRSSPAGSPRTWHAQISTSNLYLPQDPTVAKGALAGEDTGVVTHEQFKAALRMVVDQGDPRLLLDSYVKIGEGSTGIVCLAREKHSGRQVAVKMMDLRKQQRRELLFNEVVIMRDYQHFNVVEMYKSYLVGEELWVLMEFLQGGALTDIVSQVRLNEEQIATVCEAVLQALAYLHAQGVIHRDIKSDSILLTLDGRVKLSDFGFCAQISKDVPKRKSLVGTPYWMAPEVISRSLYATEVDIWSLGIMVIEMVDGEPPYFSDSPVQAMKRLRDSPPPKLKNSHKVSPVLRDFLERMLVRDPQERATAQELLDHPFLLQTGLPECLVPLIQLYRKQTSTC | – | significantly increased phosphorylation
